These results are taken from US20030069395A1 (DYAX, published 2003).

The chains are these.
B1: DX-232, Ac-AEGTGSVAWCTIFLCLDVAPEGGGK-NH2 (peptide)
peptide: Ac-AEGTGSVAWCTIFLCLDVAPEGGGK-NH2
modifications: not fully specified (bridges); printed as Ac-AEGTGSVAWCTIFLCLDVAPEGGGK-NH2; also: C-terminal Lys: fluorescein or coupled to NHS-Sepharose
notes: Putative disulfide between the two Cys
B2: DX-1163, Ac-GDDSMCITWPFKRPWPCANDPGGGK-NH2 (peptide)
peptide: Ac-GDDSMCITWPFKRPWPCANDPGGGK(fluorescein)-NH2
modifications: not fully specified (bridges); printed as Ac-GDDSMCITWPFKRPWPCANDPGGGK-NH2; cysteine pairing not given here
B3: DX-1175, Ac-AGWTTCHIYDWFCSSSGTGGGK-NH2 (peptide)
peptide: Ac-AGWTTCHIYDWFCSSSGTGGGK(fluorescein)-NH2
modifications: not fully specified (bridges); printed as Ac-AGWTTCHIYDWFCSSSGTGGGK-NH2; cysteine pairing not given here
B4: DX-1179, Ac-AGYQFCTWDPIFCGWHGTGGGK-NH2 (peptide)
peptide: Ac-AGYQFCTWDPIFCGWHGTGGGK(fluorescein)-NH2
modifications: not fully specified (bridges); printed as Ac-AGYQFCTWDPIFCGWHGTGGGK-NH2; cysteine pairing not given here
B5: DX-1177, Ac-AGLEYCFYQWWGCPHAGTGGGK-NH2 (peptide)
peptide: Ac-AGLEYCFYQWWGCPHAGTGGGK(fluorescein)-NH2
modifications: not fully specified (bridges); printed as Ac-AGLEYCFYQWWGCPHAGTGGGK-NH2; cysteine pairing not given here
B6: DX-1171, Ac-GSRSFCMDWPNHRDCDYSAPGGGK-NH2 (peptide)
peptide: Ac-GSRSFCMDWPNHRDCDYSAPGGGK(fluorescein)-NH2
modifications: not fully specified (bridges); printed as Ac-GSRSFCMDWPNHRDCDYSAPGGGK-NH2; cysteine pairing not given here
B7: DX-1002, Ac-GDLRDCQTTWPFTMMQCPNNDPGGGK-NH2 (peptide)
peptide: Ac-GDLRDCQTTWPFTMMQCPNNDPGGGK(fluorescein)-NH2
modifications: not fully specified (bridges); printed as Ac-GDLRDCQTTWPFTMMQCPNNDPGGGK-NH2; cysteine pairing not given here
B8: phage isolate displaying DWDCVTRWANRDQQCWAL (SEQ ID NO: 248) (peptide)
chain: DWDCVTRWANRDQQCWAL
modifications: not fully specified (bridges); cysteine pairing not given here
notes: Whole phage in the ELISA; not shown: protein III of M13 phage; the display peptide stands at its amino terminus
B9: phage isolate displaying DWQCVKDWANRRRGCMAD (SEQ ID NO: 250) (peptide)
chain: DWQCVKDWANRRRGCMAD
modifications: not fully specified (bridges); cysteine pairing not given here
notes: as for B8
B10: phage isolate displaying NHGCWHFSCIWD (SEQ ID NO: 243) (peptide)
chain: NHGCWHFSCIWD
modifications: not fully specified (bridges); cysteine pairing not given here
notes: as for B8
B11: phage isolate displaying ADFCEGKDMIDWVYCRLY (SEQ ID NO: 245) (peptide)
chain: ADFCEGKDMIDWVYCRLY
modifications: not fully specified (bridges); cysteine pairing not given here
notes: as for B8
B12: phage isolate displaying FKICDQWFCLMP (SEQ ID NO: 240) (peptide)
chain: FKICDQWFCLMP
modifications: not fully specified (bridges); cysteine pairing not given here
notes: as for B8
B13: phage isolate displaying HVGCNNALCMQY (SEQ ID NO: 241) (peptide)
chain: HVGCNNALCMQY
modifications: not fully specified (bridges); cysteine pairing not given here
notes: as for B8
B14: phage isolate displaying WKVCDHFFCLSP (SEQ ID NO: 242) (peptide)
chain: WKVCDHFFCLSP
modifications: not fully specified (bridges); cysteine pairing not given here
notes: as for B8
B15: phage isolate displaying FRNCEPWMLRFGCNPR (SEQ ID NO: 244) (peptide)
chain: FRNCEPWMLRFGCNPR
modifications: not fully specified (bridges); cysteine pairing not given here
notes: as for B8
B16: phage isolate displaying DWDCVTDWANRHQHCWAL (SEQ ID NO: 249) (peptide)
chain: DWDCVTDWANRHQHCWAL
modifications: not fully specified (bridges); cysteine pairing not given here
notes: as for B8
B17: phage isolate displaying RNMCKFSWIRSPAFCARADP (SEQ ID NO: 251) (peptide)
chain: RNMCKFSWIRSPAFCARADP
modifications: not fully specified (bridges); cysteine pairing not given here
notes: as for B8
B18: phage isolate displaying VAWCTIFLCLDV (SEQ ID NO: 239) (peptide)
chain: VAWCTIFLCLDV
modifications: not fully specified (bridges); cysteine pairing not given here
notes: Whole phage in the ELISA; the constant phage residues that flank the display peptide are not spelled out for the phage construct; not shown: protein III of M13 phage; the display peptide stands at its amino terminus
B19: phage isolate displaying FWFCDRIAWYPQHLCEFLD (SEQ ID NO: 246) (peptide)
chain: FWFCDRIAWYPQHLCEFLD
modifications: not fully specified (bridges); cysteine pairing not given here
notes: as for B8

Bridges are numbered along the chain shown (N, C = ends). Where no end group is shown, it is not given here. [ ]: non-standard residue; d: D form. fluorescein = fluorescein label; Ahx = NCCCCCC(=O)O

The target in the first experiment is T1, human serum albumin (HSA) (human, UniProt P02768 25-609).
T1 construct: also called caprylate-biotinylated-HSA
Briefly: fluorescence anisotropy; pH 6.2, 0.14 M NaCl, no caprylate. The protocol: (§1) Affinity determinations were made by first labeling polypeptides on the C-terminal end with NHS-fluorescein. Fluorescence anisotropy measurements were performed in 384-well microplates in a volume of 10 μl in binding buffer using a Tecan Polarion fluorescence polarization plate reader. The concentration of fluorescein labeled peptide was held constant (20 nM), and the concentration of HSA was varied. For pH 6.2, 7.1, and 7.4 binding conditions, a 3 mM phosphate, 0.01% Tween-20 buffer was used. For pH 9.1 binding conditions, a 3 mM sodium bicarbonate buffer, 0.01% Tween-20 nonionic detergent buffer was used. Once NaCl was added to any of these buffers, their pH was adjusted again to achieve the original pH. The binding mixtures were equilibrated for 10 minutes in the microplate at 30° C. prior to performing the measurement. The observed change in anisotropy was fit to the equation below via nonlinear regression to obtain the apparent KD. This equation assumes that the peptide and HSA form a reversible complex with 1:1 stoichiometry.
Background: Fluorescence polarisation rises when a labelled molecule tumbles more slowly, as on binding a larger partner.
For orientation: Kd means the concentration at which binding is half-saturated. Low values mean higher affinity, high ones lower affinity. For Ac-AEGTGSFKICDQWFCLMPAPE[Ahx]K(fluorescein)-NH2 (disulfide 10-15) [DX-295, Ac-AEGTGSFKICDQWFCLMPAPE-X-K-NH2], the Kd was > 100 µM. B1 yielded a Kd of 0.5 µM.

For Ac-AEGTGDDWDCVTDWANRHQHCWALDPE[Ahx]K(fluorescein)-NH2 (disulfide 10-21) [DX-317, Ac-AEGTGDDWDCVTDWANRHQHCWALDPE-X-K-NH2], the Kd is > 200 µM.

Another experiment has as its target T1, human serum albumin (HSA). The experiment can be described thus: fluorescence anisotropy, fluorescein-labelled peptide, PBS. The protocol:
as §1
Selected HSA binding polypeptides from these additional library selections were synthesized, fluorescein-labeled as in Example 1, and tested to determine an apparent KD for HSA in PBS. The polypeptides were synthesized to include an acetylated N-terminal dipeptide and a C-terminal dipeptide corresponding to the constant flanking amino acids immediately adjacent the display peptide as expressed on phage in the respective phage display libraries. The polypeptides were also synthesized with a C-terminal -Gly-Gly-Gly-Lys (SEQ ID NO: 24). The terminal Lys residue was amidated.
With Ac-GDFSLCWIVDEDGTKWCLPDPGGGK(fluorescein)-NH2 (disulfide 6-17 (inferred)) [DX-997, Ac-GDFSLCWIVDEDGTKWCLPDPGGGK-NH2], the Kd was > 10 µM. B2 returned a Kd of 42 µM.

B3 came in with a Kd of 30 µM.

Turning to Ac-GSLWDCWLYDCEGNAPGGGK(fluorescein)-NH2 (disulfide 6-11 (inferred)) [DX-1093, Ac-GSLWDCWLYDCEGNAPGGGK-NH2], the Kd is > 10 µM. Regarding B4, binding was put at a Kd of 185 µM. As for Ac-AGKWYCAWDPLVCEIFGTGGGK(fluorescein)-NH2 (disulfide 6-13 (inferred)) [DX-1173, Ac-AGKWYCAWDPLVCEIFGTGGGK-NH2], the equilibrium dissociation constant (Kd) was > 10 µM.

On to B5, for which binding was put at a Kd of 153 µM. Still for that read-out and setting: under Ac-GDSPYCKIALFQHFEVCAADDPGGGK(fluorescein)-NH2 (disulfide 6-17 (inferred)) [DX-1167, Ac-GDSPYCKIALFQHFEVCAADDPGGGK-NH2] stands > 10 µM; under Ac-GDRNMCKFSWIRSPAFCARADPGGGK(fluorescein)-NH2 (disulfide 6-17 (inferred)) [DX-321 of Table 9, Ac-GDRNMCKFSWIRSPAFCARADPGGGK-NH2], > 10 µM. Turning to B6, the Kd worked out at 165 µM. On the same count and under the same terms, under B7 stands 4 µM; under Ac-GDLRSCFTYYPFTTFSCSPADPGGGK(fluorescein)-NH2 (disulfide 6-17 (inferred)) [DX-1091, Ac-GDLRSCFTYYPFTTFSCSPADPGGGK-NH2], > 10 µM. With Ac-GDSFCVTYIGTWETVCKRSDPGGGK(fluorescein)-NH2 (disulfide 5-16 (inferred)) [DX-1089, Ac-GDSFCVTYIGTWETVCKRSDPGGGK-NH2], the Kd was > 10 µM.

With Ac-GDNDGCTDTNWSWMFDCPPLDPGGGK(fluorescein)-NH2 (disulfide 6-17 (inferred)) [DX-1165, Ac-GDNDGCTDTNWSWMFDCPPLDPGGGK-NH2], the Kd is > 10 µM.

A further experiment concerns the target T1, human serum albumin (HSA). Briefly: phage ELISA on immobilised caprylate-HSA, HRP anti-M13 antibody. The protocol:
Phage were selected as described below from a pool of three phage libraries (TN6/6, TN10/9, TN12/1). Phage were tested for ability to bind to HSA an in ELISA format using caprylate-bound HSA, which had been passively immobilized on the surface of wells of a microtiter assay plate. Binding of phage to immobilized HSA was detected by adding HRP-conjugated anti-M13 antibody. Following addition of TMB substrate, the absorbance at 620 nm was read with an automated plate reader. Phage bound to HSA is shown by diagonal striped bars; control wells (no HSA) is shown by open bars.
For analysis of caprylate-HSA as a target, Immulon 2HB plates were prepared by the addition of 340 μl/well of caprylate-HSA at 5.6 μg/ml. The plates were incubated overnight at 4° C. The HSA-coated plates were then washed robotically with PBSCT six times (BioTek 404, BioTek Instruments). To account for plate binders, empty plates were also washed. An equal volume of each phage clone isolate was added to a plate well containing 70 μl PBSCT in both the target plate and the control plate. Plates were incubated for one hour at room temperature. The plates were washed seven times with PBSCT using the BioTek 404 apparatus. A 1:10,000 dilution of Pharmacia HRP-αM13 antibody conjugate in PBSCT was added to each well, at 100 μl/well. Plates were incubated for one hour. After incubation, plates were washed six times with PBSCT using the BioTek 404 apparatus. Following the wash, 100 μl of a 1:1 solution of the two-component TMB substrate solution was added to each well, and the plates incubated for 30 minutes. The plates were then read at 620 nm with an automatic BioTek plate reader.
(In general: In an ELISA, binding on a coated surface is turned into a signal by an enzyme label.)
As for B8, the binding result is “binds”.

Turning to B9, the binding result was “binds”. Turning to B10, the binding result is reported as “binds”. Take B11: the binding result is “binds”. As for B12, the binding result is “binds”.

On to B13, for which the binding result is “binds”. For the molecule B14, the binding result is “binds”. For the molecule B15, the binding result is listed as “binds”.

Turning to B16, the binding result is “binds”. Same read-out and setting: next, B17: “binds”; B18: “binds”; B19: “binds”.
